Key:
Assay in all cases: EMSA
Conditions in all cases: tags: MBP fusion
ZFP SBS#410 = target: T1, ZFP SBS#410 (synthetic)
T1 chain: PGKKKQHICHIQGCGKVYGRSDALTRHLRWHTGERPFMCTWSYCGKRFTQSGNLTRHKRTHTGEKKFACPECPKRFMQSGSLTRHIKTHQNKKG
Description: (§1) Affinity is measured by titrating purified protein against a fixed amount of labeled double-stranded oligonucleotide target. The target typically comprises the natural binding site sequence flanked by the 3 bp found in the natural sequence and additional, constant flanking sequences. The natural binding site is typically 9 bp for a three-finger protein and 2×9 bp +intervening bases for a six finger ZFP. […] For the assay the target is added at a concentration of 1 nM or lower (the actual concentration is kept at least 10-fold lower than the expected dissociation constant), purified ZFPs are added at various concentrations, and the reaction is allowed to equilibrate for at least 45 min. In addition the reaction mixture also contains 10 mM Tris (pH 7.5), 100 mM KCl, 1 mM MgCl2, 0.1 mM ZnCl2, 5 mM DTT, 10% glycerol, 0.02% BSA. (NB: in earlier assays poly d(IC) was also added at […].) The equilibrated reactions are loaded onto a 10% polyacrylamide gel, which has been pre-run for 45 min in Tris/glycine buffer, then bound and unbound labeled target is resolved by electrophoresis at 150V.

ZFP SBS#400 = target: T2, ZFP SBS#400 (synthetic)
T2 chain: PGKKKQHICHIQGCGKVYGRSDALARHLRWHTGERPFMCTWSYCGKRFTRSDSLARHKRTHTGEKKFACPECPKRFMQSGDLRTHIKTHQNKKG
Description: as §1

ZFP SBS#396 = ZFP SBS#396 (synthetic)
Sequence of ZFP SBS#396 (synthetic) (chain, as listed by the source): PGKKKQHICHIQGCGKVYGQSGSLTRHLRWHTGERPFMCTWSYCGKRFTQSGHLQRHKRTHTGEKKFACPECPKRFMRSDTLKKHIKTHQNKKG
Description: as §1

ZFP SBS#397 = ZFP SBS#397 (synthetic)
Sequence of ZFP SBS#397 (synthetic) (chain, as listed by the source): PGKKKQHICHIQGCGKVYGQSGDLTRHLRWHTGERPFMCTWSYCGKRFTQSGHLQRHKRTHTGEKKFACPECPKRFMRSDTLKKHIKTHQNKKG
Description: as §1

ZFP SBS#405 = target: T3, ZFP SBS#405 (synthetic)
T3 chain: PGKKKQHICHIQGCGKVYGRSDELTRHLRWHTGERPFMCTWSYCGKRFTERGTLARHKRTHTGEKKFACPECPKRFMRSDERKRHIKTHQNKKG
Description: as §1

ZFP SBS#407 = target: T4, ZFP SBS#407 (synthetic)
T4 chain: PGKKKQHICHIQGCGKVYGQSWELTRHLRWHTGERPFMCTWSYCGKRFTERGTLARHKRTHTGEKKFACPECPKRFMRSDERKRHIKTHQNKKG
Description: as §1

ZFP SBS#409 = target: T5, ZFP SBS#409 (synthetic)
T5 chain: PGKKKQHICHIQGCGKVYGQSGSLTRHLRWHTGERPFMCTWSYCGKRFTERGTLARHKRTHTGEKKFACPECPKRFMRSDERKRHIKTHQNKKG
Description: as §1

ZFP SBS#408 = target: T6, ZFP SBS#408 (synthetic)
T6 chain: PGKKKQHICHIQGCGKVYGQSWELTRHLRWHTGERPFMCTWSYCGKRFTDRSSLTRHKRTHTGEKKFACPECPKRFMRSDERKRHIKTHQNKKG
Description: as §1

ZFP SBS#406 = target: T7, ZFP SBS#406 (synthetic)
T7 chain: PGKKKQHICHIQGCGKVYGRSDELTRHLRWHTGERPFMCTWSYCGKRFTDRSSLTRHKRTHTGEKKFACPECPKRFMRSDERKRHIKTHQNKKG
Description: as §1

ZFP SBS#494 = target: T8, ZFP SBS#494 (synthetic)
T8 chain: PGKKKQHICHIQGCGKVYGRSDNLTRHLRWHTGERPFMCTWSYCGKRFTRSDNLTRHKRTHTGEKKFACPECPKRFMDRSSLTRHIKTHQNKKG
Description: as §1

ZFP SBS#379 = target: T9, ZFP SBS#379 (synthetic)
T9 chain: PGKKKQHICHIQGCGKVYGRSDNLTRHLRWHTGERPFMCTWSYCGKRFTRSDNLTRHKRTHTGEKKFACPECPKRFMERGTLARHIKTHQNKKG
Description: as §1

ZFP SBS#378 = target: T10, ZFP SBS#378 (synthetic)
T10 chain: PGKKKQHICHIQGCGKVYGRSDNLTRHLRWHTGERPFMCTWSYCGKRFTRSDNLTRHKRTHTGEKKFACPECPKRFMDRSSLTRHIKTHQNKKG
Description: as §1

ZFP SBS#508 = target: T11, ZFP SBS#508 (synthetic)
T11 chain: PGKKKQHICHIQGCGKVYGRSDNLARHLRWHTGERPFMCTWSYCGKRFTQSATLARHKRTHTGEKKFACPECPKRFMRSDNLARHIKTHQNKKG
Description: as §1

ZFP SBS#507 = target: T12, ZFP SBS#507 (synthetic)
T12 chain: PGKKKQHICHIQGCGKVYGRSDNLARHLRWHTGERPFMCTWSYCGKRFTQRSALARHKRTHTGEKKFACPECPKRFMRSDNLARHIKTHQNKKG
Description: as §1

ZFP SBS#513 = ZFP SBS#513 (synthetic)
Sequence of ZFP SBS#513 (synthetic) (chain, as listed by the source): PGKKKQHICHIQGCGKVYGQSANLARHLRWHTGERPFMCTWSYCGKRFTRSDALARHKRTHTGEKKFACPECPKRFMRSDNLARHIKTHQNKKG
Description: as §1

ZFP SBS#512 = ZFP SBS#512 (synthetic)
Sequence of ZFP SBS#512 (synthetic) (chain, as listed by the source): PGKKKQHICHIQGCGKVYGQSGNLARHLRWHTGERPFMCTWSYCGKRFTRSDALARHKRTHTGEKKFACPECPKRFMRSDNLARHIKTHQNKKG
Description: as §1

ZFP SBS#502 = ZFP SBS#502 (synthetic, UniProt P08047)
Sequence of ZFP SBS#502 (P08047 other isoform, or with tags, fused parts or gaps): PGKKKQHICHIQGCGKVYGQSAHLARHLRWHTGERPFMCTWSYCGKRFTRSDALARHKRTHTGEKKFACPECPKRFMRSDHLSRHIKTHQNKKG
Description: as §1

ZFP SBS#343 = ZFP SBS#343 (synthetic)
Description: as §1

ZFP SBS#345 = ZFP SBS#345 (synthetic)
Description: as §1

ZFP SBS#344 = ZFP SBS#344 (synthetic)
Sequence of ZFP SBS#344 (synthetic) (chain, as listed by the source): as the sequence (P08047 other isoform, or with tags, fused parts or gaps) above, with A22G, H23S, A25T, A53H, A55T, R78E, S79R, S83R, R84T counted along it
Description: as §1

ZFP SBS#346 = ZFP SBS#346 (synthetic)
Description: as §1

ZFP SBS#340 = target: T13, ZFP SBS#340 (synthetic)
T13 chain: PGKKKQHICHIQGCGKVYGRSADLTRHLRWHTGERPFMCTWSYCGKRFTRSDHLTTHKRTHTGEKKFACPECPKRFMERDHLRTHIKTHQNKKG
Description: as §1

ZFP SBS#338 = ZFP SBS#338 (synthetic)
Sequence of ZFP SBS#338 (synthetic) (chain, as listed by the source): as the sequence (P08047 other isoform, or with tags, fused parts or gaps) above, with Q20R, H23D, A25T, A53H, A55T, R78E, S79R, S83R, R84T counted along it
Description: as §1

ZFP SBS#339 = ZFP SBS#339 (synthetic)
Sequence of ZFP SBS#339 (synthetic) (chain, as listed by the source): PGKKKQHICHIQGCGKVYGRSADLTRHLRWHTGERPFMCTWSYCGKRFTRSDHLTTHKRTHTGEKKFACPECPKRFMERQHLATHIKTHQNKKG
Description: as §1

ZFP SBS#337 = ZFP SBS#337 (synthetic)
Sequence of ZFP SBS#337 (synthetic) (chain, as listed by the source): as the sequence (P08047 other isoform, or with tags, fused parts or gaps) above, with Q20R, H23D, A25T, A53H, A55T, R78E, S79R, D80Q, S83A, R84T counted along it
Description: as §1

ZFP SBS#493 = target: T14, ZFP SBS#493 (synthetic, UniProt P08047)
T14 chain: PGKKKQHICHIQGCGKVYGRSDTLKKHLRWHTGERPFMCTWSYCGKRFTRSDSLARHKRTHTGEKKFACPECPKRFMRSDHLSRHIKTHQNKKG
Description: as §1

ZFP SBS#501 = target: T15, ZFP SBS#501 (synthetic)
T15 chain: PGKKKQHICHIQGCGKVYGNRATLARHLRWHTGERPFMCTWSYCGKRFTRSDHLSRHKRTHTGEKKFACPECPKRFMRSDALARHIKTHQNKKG
Description: as §1

ZFP SBS#412 = ZFP SBS#412 (synthetic)
Sequence of ZFP SBS#412 (synthetic) (chain, as listed by the source): as the sequence (P08047 other isoform, or with tags, fused parts or gaps) above, with A22G, H23S, A25T, A53H, A55T, R56T, H81E, L82R, S83K counted along it
Description: as §1

ZFP SBS#385 = target: T16, ZFP SBS#385 (synthetic)
T16 chain: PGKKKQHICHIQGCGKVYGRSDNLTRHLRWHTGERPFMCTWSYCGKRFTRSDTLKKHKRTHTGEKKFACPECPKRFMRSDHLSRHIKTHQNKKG
Description: as §1

ZFP SBS#386 = target: T17, ZFP SBS#386 (synthetic, UniProt P08047)
T17 chain: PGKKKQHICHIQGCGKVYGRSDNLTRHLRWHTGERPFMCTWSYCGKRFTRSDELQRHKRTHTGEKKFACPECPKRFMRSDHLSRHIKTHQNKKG
Description: as §1

ZFP SBS#390 = target: T18, ZFP SBS#390 (synthetic)
T18 chain: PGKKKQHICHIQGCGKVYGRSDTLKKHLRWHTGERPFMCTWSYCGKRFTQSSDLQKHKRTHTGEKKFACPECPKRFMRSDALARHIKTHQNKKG
Description: as §1

ZFP SBS#387 = ZFP SBS#387 (synthetic)
Sequence of ZFP SBS#387 (synthetic) (chain, as listed by the source): as the sequence (P08047 other isoform, or with tags, fused parts or gaps) above, with A22G, H23S, A25T, A53N, R78D, S79R, D80S, S83A counted along it
Description: as §1

ZFP SBS#388 = ZFP SBS#388 (synthetic)
Sequence of ZFP SBS#388 (synthetic) (chain, as listed by the source): as the sequence (P08047 other isoform, or with tags, fused parts or gaps) above, with A22G, H23D, A25T, A53N, R78D, S79R, D80S, S83A counted along it
Description: as §1

ZFP SBS#510 = ZFP SBS#510 (synthetic)
Sequence of ZFP SBS#510 (synthetic) (chain, as listed by the source): as the sequence (P08047 other isoform, or with tags, fused parts or gaps) above, with A22G, H23N, A53N, R78N, S79R, D80A, H81T, S83A counted along it
Description: as §1

ZFP SBS#511 = ZFP SBS#511 (synthetic)
Sequence of ZFP SBS#511 (synthetic) (chain, as listed by the source): as the sequence (P08047 other isoform, or with tags, fused parts or gaps) above, with A22G, H23N, A53N, R78Q, D80S, H81A, S83A counted along it
Description: as §1

ZFP SBS#413 = ZFP SBS#413 (synthetic)
Sequence of ZFP SBS#413 (synthetic) (chain, as listed by the source): as the sequence (P08047 other isoform, or with tags, fused parts or gaps) above, with A22G, H23S, A25T, A53H, A55T, R56T, H81E, L82R, S83K counted along it
Description: as §1

ZFP SBS#509 = ZFP SBS#509 (synthetic)
Sequence of ZFP SBS#509 (synthetic) (chain, as listed by the source): as the sequence (P08047 other isoform, or with tags, fused parts or gaps) above, with Q20R, A22D, A25T, R26T, R78D, S79R, D80S, H81A, S83A counted along it
Description: as §1

ZFP SBS#514 = target: T19, ZFP SBS#514 (synthetic)
T19 chain: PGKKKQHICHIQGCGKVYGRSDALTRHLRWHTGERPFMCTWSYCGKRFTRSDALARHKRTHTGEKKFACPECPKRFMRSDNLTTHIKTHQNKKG
Description: as §1

B1: GCAGAAGTC (dsDNA)
DNA 1: GCAGAAGTC
DNA 2: GACTTCTGC
ZFP SBS#410
  Kd: 3 nM

B2: TCAGTGGTGG (dsDNA)
DNA 1: TCAGTGGTGG
DNA 2: CCACCACTGA
ZFP SBS#400
  Kd: 40 nM

B3: GCGGGAGCAG (dsDNA)
DNA 1: GCGGGAGCAG
DNA 2: CTGCTCCCGC
ZFP SBS#396
  Kd: 18.8 nM
ZFP SBS#397
  Kd: 25 nM

B4: GCGGCCGCA (dsDNA)
DNA 1: GCGGCCGCA
DNA 2: TGCGGCCGC
ZFP SBS#405
  Kd: 110 nM
ZFP SBS#407
  Kd: 410 nM
ZFP SBS#409
  Kd: 50 nM
ZFP SBS#408
  Kd: 380 nM
ZFP SBS#406
  Kd: 110 nM

B5: GCCGAGGAGA (dsDNA)
DNA 1: GCCGAGGAGA
DNA 2: TCTCCTCGGC
ZFP SBS#494
  Kd: 90 nM
ZFP SBS#379
  Kd: 3 nM
ZFP SBS#378
  Kd: 31 nM

B6: GAGGTAGAGG (dsDNA)
DNA 1: GAGGTAGAGG
DNA 2: CCTCTACCTC
ZFP SBS#508
  Kd: 10 nM
ZFP SBS#507
  Kd: 10 nM

B7: GAGGTGGAAG (dsDNA)
DNA 1: GAGGTGGAAG
DNA 2: CTTCCACCTC
ZFP SBS#513
  Kd: 1.5 nM
ZFP SBS#512
  Kd: 10 nM

B8: GGGGTGGGA (dsDNA)
DNA 1: GGGGTGGGA
DNA 2: TCCCACCCC
ZFP SBS#502
  Kd: 60 nM

B9: TGCGGGGCAA (dsDNA)
DNA 1: TGCGGGGCAA
DNA 2: TTGCCCCGCA
ZFP SBS#343
  Kd: 8 nM
ZFP SBS#345
  Kd: 96 nM
ZFP SBS#344
  Kd: 6 nM
ZFP SBS#346
  Kd: 64 nM
ZFP SBS#340
  Kd: 48 nM
ZFP SBS#338
  Kd: 8 nM
ZFP SBS#339
  Kd: 64 nM
ZFP SBS#337
  Kd: 24 nM

B10: GGGGTGGCGG (dsDNA)
DNA 1: GGGGTGGCGG
DNA 2: CCGCCACCCC
ZFP SBS#493
  Kd: 300 nM

B11: GTGGGGGTT (dsDNA)
DNA 1: GTGGGGGTT
DNA 2: AACCCCCAC
ZFP SBS#501
  Kd: 8 nM

B12: GCGTGGGCG (dsDNA)
DNA 1: GCGTGGGCG
DNA 2: CGCCCACGC
ZFP SBS#412
  Kd: 5 nM

B13: GGGGCGGAGC (dsDNA)
DNA 1: GGGGCGGAGC
DNA 2: GCTCCGCCCC
ZFP SBS#385
  Kd: 1.2 nM
ZFP SBS#386
  Kd: 0.4 nM

B14: GTGGCAGCGG (dsDNA)
DNA 1: GTGGCAGCGG
DNA 2: CCGCTGCCAC
ZFP SBS#390
  Kd: 20 nM

B15: GGCGAGGCAA (dsDNA)
DNA 1: GGCGAGGCAA
DNA 2: TTGCCTCGCC
ZFP SBS#387
  Kd: 2.5 nM
ZFP SBS#388
  Kd: 28 nM

B16: GTTGAGGAAG (dsDNA)
DNA 1: GTTGAGGAAG
DNA 2: CTTCCTCAAC
ZFP SBS#510
  Kd: 100 nM
ZFP SBS#511
  Kd: 100 nM

B17: GCGTGGGCA (dsDNA)
DNA 1: GCGTGGGCA
DNA 2: TGCCCACGC
ZFP SBS#413
  Kd: 5 nM

B18: GTCGTGTGGC (dsDNA)
DNA 1: GTCGTGTGGC
DNA 2: GCCACACGAC
ZFP SBS#509
  Kd: 100 nM

B19: TAGGTGGTGG (dsDNA)
DNA 1: TAGGTGGTGG
DNA 2: CCACCACCTA
ZFP SBS#514
  Kd: 10 nM
